According to patent US9187735B2, “Metal abstraction peptide with superoxide dismutase activity” (University of Kansas, priority 2012, dated 2015):
No end group written: not given here.

Columns and labels:
[1] = Cyclic voltammetry, midpoint potential; type: physicochemical; settings: pH 10, measured immediately after generation
Experimental: Electrochemical data were collected. A 3 mL sample of 3 mM Ni-NCC was prepared in 50 mM sodium borate at pH 10. CV data were collected with a CH1812C Electrochemical Analyzer potentiostat (CH Instruments) with a three-electrode setup (platinum working electrode, Bioanalytical Systems, Inc.; Pt auxiliary electrode; Ag/AgCl reference electrode) in a glass CV cell. Potential was applied from zero to 1.2 V with a scan rate of 0.2 V per second, and current was measured. The same experiment was attempted on a 3 mM Ni-NCC sample in 50 mM potassium phosphate at the same pH. The sample was incubated for 24 hours and analyzed again.
Electrochemical data were collected as previously described. 3-mL samples of 3 mM Ni-GGNCC (SEQ ID NO. 1) and Ni-GGGCC (SEQ ID NO. 3) were prepared in 50 mM potassium phosphate at pH 7.4. After incorporation, pH was raised to 10 to observe more intense signal. Cyclic voltammetry (CV) data were collected with a CH1812C Electrochemical Analyzer potentiostat (CH Instruments) with a three-electrode setup (platinum working electrode, Bioanalytical Systems, Inc.; Pt auxiliary electrode; Ag/AgCl reference electrode) in a glass CV cell. Potential was applied from zero to 1.2 V with a scan rate of 0.2 V per second, and current was measured.

[2] = Ni-SOD xanthine/xanthine oxidase coupled assay (superoxide scavenging); type: biochemical; settings: cytochrome c, absorbance at 550 nm, reaction buffer pH 7.8
Experimental: Ni-SOD activity was determined, except Ni-NCC was generated in situ using one equivalent NiSO4. Ni-NCC was aged for 0-120 minutes, and the Ni-SOD activity was determined using the standard xanthine/xanthine oxidase method developed by Crappo and coworkers. All reagents were generated in 50 mM potassium phosphate, 100 μM EDTA reaction buffer at pH 7.8 except for Ni-NCC, which was generated in 50 mM potassium phosphate, pH 7.4. 600 μM cytochrome c from bovine heart (Sigma), 300 μM xanthine (Sigma) and enough xanthine oxidase from buttermilk (Sigma) to cause a change in absorbance at […] of 0.02-0.04 AU per minute were added to a final volume of 300 μL with reaction buffer. The change in absorbance at 550 nm was monitored on a Cary 100 UV-Visible spectrophotometer (Varian). The assay was performed with 100 μM Ni-NCC.
Superoxide scavenging activity was determined as reported previously, except Ni-peptides were generated in situ using one equivalent of NiSO4. Superoxide scavenging activity of Ni-GGGCC (SEQ ID NO. 3), Ni-GGNCC (SEQ ID NO. 1), Ni-GNNCC (SEQ ID NO. 4), and Ni-GNGCC (SEQ ID NO. 5) was determined using the standard xanthine/xanthine oxidase method developed by Crapo and coworkers. […] The change in absorbance at 550 nm was monitored on a Cary 100 UV-Visible spectrophotometer (Varian).

[3] = Photopolymerization of hydroxy ethyl methacrylic acid (HEMA), rate by FTIR; settings: light 550 mW cm-2 for 40 seconds
Experimental: Photopolymerization of hydroxy ethyl methacrylic acid (HEMA) was initiated using a visible light-curing unit (Spectrum® 800, Dentsply, Milford, Del., USA) at an intensity of 550 mW cm-2 for 40 seconds. The subsequent rate of polymerization was measured via FTIR and is reported as a normalized ratio of peak intensities from unreacted and reacted monomer (1455 cm^−1 and 1673 cm^−1). The rate of polymerization was altered by the addition of Ni-NCC and Ni-GGNCC (SEQ ID NO. 1). See FIG. 31, illustrating the percentage of polymer remaining over time.

Row | Substance | midpoint potential [1] [V vs Ag/AgCl] | IC50 [2] [µM] | effect on rate of polymerization [3]
1 | Ni-GGGCC: nickel complex of pentapeptide GGGCC (SEQ ID NO. 3) (cysteine pairing not given here; also: nickel complex) | 0.78 |  | 
2 | XXLLL-GGNCC (not fully specified (N-terminus); cysteine pairing not given here; also: metallated with nickel) [Ni-GGNCC] | 0.8 | 9.1 | slowed the rate of polymerization
